Reference: paper PMC11799418

Legend:
Endophilin B1 (human) [1] = molecular target: Endophilin B1 (human) (UniProt Q9Y371); assay: cryo-EM structure; endophilin B1 incubated with MSP2N2 nanodiscs at molar ratio 1:2 (MSP2N2:endophilin B1); cryo-EM data split into 2 classes
Endophilin B1 (human) [2] = molecular target: Endophilin B1 (human) (UniProt Q9Y371); assay: SAXS; in solution, 8 and 16 μM endophilin B1 (0.34 and 0.69 mg/ml); 150 mM NaCl, 20 mM HEPES, 1 mM TCEP, 0.5 mM DTT, pH 8.1, 4 °C; monomer to dimer
Endophilin B1 (human) [3] = molecular target: Endophilin B1 (human) (UniProt Q9Y371); assay: cryo-EM structure; endophilin B1 incubated with His6-MSP2N2 nanodiscs (90% DOPS, 10% 14:0 cardiolipin), molar ratio 1:10 (MSP2N2:endophilin B1), SEC peak vitrified; single-particle reconstruction of membrane-bound endophilin B1 on bicelles, cryoSPARC and cryoDRGN

stoichiometry N (Endophilin B1 (human) [1]): 2
stoichiometry N (Endophilin B1 (human) [2]): 2
dimers bound per bicelle (Endophilin B1 (human) [3]): 6 dimers
Substance: Endophilin B1 (from UniProt Q9Y371 1-365) (natural protein)
